Assay results as given in patent publication US20080220446A1, “Method for Detecting and/or Removing Protein and/or Peptide Comprising a Cross-Beta Structure From an Aqueous Solution Comprising a Protein” (priority 2005, published 2008).

T1: factor XII (Homo sapiens, UniProt P00748)
T1 construct: purified human factor XII from plasma (Calbiochem); purchased Calbiochem; host or cells: human plasma
T1 sequence (P00748 20-615): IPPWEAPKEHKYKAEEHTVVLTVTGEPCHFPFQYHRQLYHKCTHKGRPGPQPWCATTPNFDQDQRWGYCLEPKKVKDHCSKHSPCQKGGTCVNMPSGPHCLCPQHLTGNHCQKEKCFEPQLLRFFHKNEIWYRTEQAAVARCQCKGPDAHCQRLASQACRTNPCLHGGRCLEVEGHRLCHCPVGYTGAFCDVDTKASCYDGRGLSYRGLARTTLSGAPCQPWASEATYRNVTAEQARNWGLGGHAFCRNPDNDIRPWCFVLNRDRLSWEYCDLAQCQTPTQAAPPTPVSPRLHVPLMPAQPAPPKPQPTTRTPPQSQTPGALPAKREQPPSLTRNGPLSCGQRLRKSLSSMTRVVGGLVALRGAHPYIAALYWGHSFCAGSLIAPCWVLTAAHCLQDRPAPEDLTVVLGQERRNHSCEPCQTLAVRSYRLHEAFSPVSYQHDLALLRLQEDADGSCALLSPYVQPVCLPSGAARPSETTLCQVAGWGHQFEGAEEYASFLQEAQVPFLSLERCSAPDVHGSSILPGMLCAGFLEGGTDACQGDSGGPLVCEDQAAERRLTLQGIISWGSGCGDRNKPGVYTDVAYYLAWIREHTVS


Assays:
[1] = Thioflavin T fluorescence of protein solutions; assay type: physicochemical; settings: after exposure to CL or DXS500k
Method: Fluorescence of ThT—protein/peptide adducts was measured as follows. […] Fluorescence was measured at 485 nm upon excitation at 435 nm. Background signals from buffer, buffer with ThT and protein/peptide solution without ThT were subtracted from corresponding measurements with protein solution incubated with ThT. Regularly, fluorescence of Aβ was used as a positive control, and fluorescence of FP10, a non-amyloid fibrin fragment^16, was used as a negative control. Fluorescence was measured in triplicate on a Hitachi F-4500 fluorescence spectrophotometer (Ltd., Tokyo, Japan).
Formulated protein therapeutics were obtained from the local hospital pharmacy and were used as supplied by the manufacturers. […] Lyophilized therapeutics were dissolved according to the manufacturers recommendations. GH, zinc-insulin, Cealb and gelatin were stored at −20, 4, room temperature, 37 and 65° C. Other protein therapeutics were only kept at 4° C., and assayed for the presence of cross-β structure at shown time points. Enhancement in fluorescence of ThT and Congo red was measured with all formulated protein therapeutics. […]
ThT fluorescence of β2GPI was measured as follows. […] In the ThT fluorescence assay, fluorescence of β2GPI in buffer, of CL or DXS500k in buffer, of buffer and ThT alone, and of β2GPI-CL adducts and β2GPI-DXS500k adducts, with or without ThT, was recorded as described above (section ThT fluorescence). In addition, TEM images were recorded with CL, β2GPI from human plasma, with or without CL, and with recombinant β2GPI, as described^5.
(§1) To prepare structurally altered ovalbumin (OVA) with amyloid cross-β structures, purified OVA (Sigma, A-7641, lot 071k7094) was heated to 85° C. […] Native OVA (nOVA) and heat-denatured OVA (dOVA) were tested in the ThT fluorescence assay and in the Plg-activation assay. In the fluorescence assay and in the Plg-activation assay, 25 and 100 μg ml^−1 nOVA and dOVA were tested, respectively. […]
MSA (#126674, Calbiochem) was dissolved in 8 M urea, 100 mM Tris-HCl pH 8.2, at 10 mg ml^−1 final concentration. […] The presence of aggregates or fibrils was analyzed using TEM. […]

[2] = target: T2, tPA (Homo sapiens, UniProt P00750); assay: ELISA, binding of β2GPI to immobilized tPA
Method: (§2) Binding of purified human factor XII from plasma (Calbiochem) or of purified recombinant human tPA to β2GPI purified from human plasma, or to recombinant human β2GPI was tested in an ELISA. Ten μg of factor XII or tPA in PBS was coated onto wells of a Costar 2595 ELISA plate (Cambridge, USA) and incubated with concentration series of the two β2GPI preparations. Binding of β2GPI was assessed with monoclonal antibody 2B2^22.

[3] = target: T2, tPA; assay: Plasminogen-activation assay (tPA activation, S-2251); assay type: biochemical; settings: β2GPI preparations, 100 μg ml^−1
Method: Plasmin (Pls) activity was assayed as described^16. Peptides and proteins that were tested for their stimulatory ability were regularly used at 100 μg ml^−1. […] Chromogenic substrate S-2251 (Chromogenix, Instrumentation Laboratory SpA, Milano, Italy) was used to measure Pls activity. Conversion of zymogen factor XII (#233490, Calbiochem, EMD Biosciences, Inc., San Diego, Calif.) to proteolytically active factor XII (factor XIIa) was assayed by measurement of the conversion of chromogenic substrate Chromozym-PK (Roche Diagnostics, Almere, The Netherlands) by kallikrein. Chromozym-PK was used at a concentration of 0.3 mM. […] The conversion of Chromozym-PK was recorded kinetically at 37° C. for at least 60 minutes. […]
Formulated protein therapeutics were obtained from the local hospital pharmacy and were used as supplied by the manufacturers. […] Enhancement in fluorescence of ThT and Congo red was measured with all formulated protein therapeutics. […]
as §1

[4] = target: T1, factor XII; assay: ELISA, binding of β2GPI to immobilized factor XII
Method: as §2

[5] = target: T2, tPA; assay: tPA/plasminogen activation assay; assay type: biochemical; settings: β2gpi exposed to cardiolipin or alkylated, 100 μg/ml
Method: β2-GPI was reduced and alkylated as follows. Sixhundredforty μl of β2-GPI stock was mixed with 640 μl of 8 M Urea (cooled solution) in 0.1 M Tris pH-8.2. The solution was degassed with N2 gas for approximately 6 minutes. From a 1 M DTT stock 12.8 μl was added to the solution, mixed and incubated for 3 hours at room temperature. A 1 M Iodoacetamide (Sigma; I-6125) was prepared, of which 25.6 μl was added to the β2-GPI reaction mixture. The solution was subsequently dialysed against PBS. […] Signals obtained with alkyl-β2gpi are compared with those obtained with native β2gpi starting material and with positive control acid/heat denatured amyloid-like misfolded γ-globulins.
Exiqon Peptide Immobilizer plates were blocked for 1 hour with PBS, 1% Tween20 and rinsed twice with distilled water. The conversion of the chromogenic substrate S-2251 (Chromogenix, Italy) by plasmin was kinetically measured at 37° C. on a Spectramax340 microplate reader at a wavelength of 405 nm. […] Denatured γ-globulins (100 μg/ml) with amyloid-like structure was used as reference and positive control. Lyophilized γ-globulins (Sigma, Mo., USA) were dissolved in a 1(:)1 volume ratio of 1,1,1,3,3,3-hexafluoro-2-propanol and trifluoro-acetic acid and subsequently dried under air. […]
Protein therapeutics were obtained from the local hospital pharmacy and analyzed within the expiry limits as stated by the manufacturers.

T2 sequence (P00750 36-562): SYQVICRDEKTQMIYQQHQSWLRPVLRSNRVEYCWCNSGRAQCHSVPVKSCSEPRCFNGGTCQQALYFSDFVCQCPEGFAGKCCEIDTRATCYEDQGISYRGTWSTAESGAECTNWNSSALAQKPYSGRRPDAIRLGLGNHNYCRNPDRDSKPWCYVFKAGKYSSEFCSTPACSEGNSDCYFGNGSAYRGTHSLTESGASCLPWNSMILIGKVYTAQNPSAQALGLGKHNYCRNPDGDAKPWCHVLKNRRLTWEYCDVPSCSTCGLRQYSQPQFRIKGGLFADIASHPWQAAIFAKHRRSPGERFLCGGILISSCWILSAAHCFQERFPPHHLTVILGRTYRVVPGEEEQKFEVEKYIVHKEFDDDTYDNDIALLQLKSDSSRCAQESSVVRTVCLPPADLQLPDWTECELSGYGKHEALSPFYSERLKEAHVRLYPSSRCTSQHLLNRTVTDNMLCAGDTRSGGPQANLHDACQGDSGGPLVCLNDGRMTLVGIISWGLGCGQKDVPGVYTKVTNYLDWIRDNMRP

binding to tPA ([2]; listed as β2GPI purified from fresh human plasma) | binding to tPA ([2]; listed as β2GPI purified from plasma) | binding to factor XII [4] | ability to activate tPA/plasminogen [5] | Molecule | ThT fluorescence signal [1] | stimulation of tPA-mediated conversion of Plg to Pls [3]
not | does not bind | not |  | β2GPI purified from fresh plasma: β2-glycoprotein I purified from fresh human plasma (protein) GRTCPKPDDLPFSTVVPLKTFYEPGEEITYSCKPGYVSRGGMRKFICPLTGLWPINTLKCTPRVCPFAGILENGAVRYTTFEYPNTISFSCNTGFYLNGADSAKCTEEGKWSPELPVCAPIICPPPSIPTFATLRVYKPSAGNNSLYRDTAVFECLPQHAMFGNDTITCTTHGNWTKLPECREVKCPFPSRPDNGFVNYPAKPTLYYKDKATFGCHDGYSLDGPEEIECTKLGNWSAMPSCKASCKVPVKKATVVYQGERVKIQEKFKNGMLHGDKVSFFCKNKEKKCSYTEDAQCIDGTIEVPKCFKEHSSLAFWKTDASDVKPC | increased ThT fluorescence signal | not
 |  |  | accelerated | CL-β2gpi: β2gpi exposed to cardiolipin (protein) GRTCPKPDDLPFSTVVPLKTFYEPGEEITYSCKPGYVSRGGMRKFICPLTGLWPINTLKCTPRVCPFAGILENGAVRYTTFEYPNTISFSCNTGFYLNGADSAKCTEEGKWSPELPVCAPIICPPPSIPTFATLRVYKPSAGNNSLYRDTAVFECLPQHAMFGNDTITCTTHGNWTKLPECREVKCPFPSRPDNGFVNYPAKPTLYYKDKATFGCHDGYSLDGPEEIECTKLGNWSAMPSCKASCKVPVKKATVVYQGERVKIQEKFKNGMLHGDKVSFFCKNKEKKCSYTEDAQCIDGTIEVPKCFKEHSSLAFWKTDASDVKPC |  | 
